Results as given in patent US6884616.

Key:
[1] = molecular target: Recombinant human Factor IX immunoprecipitated from supernatants of GPIIb-FIX(WT.I1)-transfected HEL cells (UniProt P00740)
[2] = molecular target: Mononine (purified Factor IX) (UniProt P00740)

“Factor XIa (Enzyme Research Lab., Swansea, UK)” was tested. Which “FIX cleavage after incubation with FXIa (immunoblot of immunoprecipitated FIX, enzyme/substrate 1/40)” value [1] did it give?
Its value is “activation of the immunoprecipitated FIX from HEL cells resulted in the appearance of two bands corresponding to the heavy chain (29 kDa) and the light chain (19 kDa)”.

And the “FIX cleavage after incubation with FXIa (rate of activation and protein profile)” value [2]?
Its value is “The rate of activation and the protein profile from HEL supernatants was similar to the results obtained with Mononine”.
